The values that follow are results of earlier work, collected in article PMC4048747.

The series addresses IGF-1R (UniProt P08069).
Chain of UniProt P08069 (P08069 31-736, chain 1 of 2): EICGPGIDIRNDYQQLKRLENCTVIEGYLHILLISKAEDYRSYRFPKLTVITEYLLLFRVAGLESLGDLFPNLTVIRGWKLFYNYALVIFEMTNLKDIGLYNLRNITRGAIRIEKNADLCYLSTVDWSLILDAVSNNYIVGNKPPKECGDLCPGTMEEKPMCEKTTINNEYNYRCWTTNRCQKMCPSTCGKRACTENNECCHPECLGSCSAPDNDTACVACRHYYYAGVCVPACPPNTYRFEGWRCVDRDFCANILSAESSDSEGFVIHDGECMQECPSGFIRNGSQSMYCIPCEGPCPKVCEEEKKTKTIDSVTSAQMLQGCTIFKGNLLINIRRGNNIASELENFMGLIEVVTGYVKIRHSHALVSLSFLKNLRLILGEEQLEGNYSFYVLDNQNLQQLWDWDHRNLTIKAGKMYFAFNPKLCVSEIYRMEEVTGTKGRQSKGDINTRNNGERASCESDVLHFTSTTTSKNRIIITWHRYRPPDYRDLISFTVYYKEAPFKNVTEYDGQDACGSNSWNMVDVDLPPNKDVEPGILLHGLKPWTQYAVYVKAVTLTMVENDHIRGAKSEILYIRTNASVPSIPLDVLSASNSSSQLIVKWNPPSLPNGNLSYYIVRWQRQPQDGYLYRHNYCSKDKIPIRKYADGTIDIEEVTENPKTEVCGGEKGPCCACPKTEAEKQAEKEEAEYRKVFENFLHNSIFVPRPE
Chain of UniProt P08069 (P08069 741-935, chain 2 of 2): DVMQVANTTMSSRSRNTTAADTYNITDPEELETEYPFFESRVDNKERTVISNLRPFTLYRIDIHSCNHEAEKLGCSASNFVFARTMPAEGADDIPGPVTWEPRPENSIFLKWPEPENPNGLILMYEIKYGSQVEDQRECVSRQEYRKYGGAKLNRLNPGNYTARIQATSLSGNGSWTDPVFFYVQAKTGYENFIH

With Decorin (from UniProt P07585), the Kd was 18 nM.
